Changes are numbered by the printed parent chain. Names and notes keep the numbering of the source.
Tests used:
[1] = system: DU145 human prostate cancer cells; assay: xenograft model of prostate cancer (DU145) in nude mice; assay type: in vivo
Protocol: Prostate cancer cells (DU145) were implanted into the right rear flank of 5-6 week old male homozygous (nu/nu) nude mice (Harlan). Tumors were allowed to grow to an average size of ≧75 mm^3 before treatments were initiated. Animals of each tumor type, with the properly-sized tumors, were divided into treatment groups. All the test compounds were diluted in PBS (drug vehicle), and one set of animals treated with vehicle (PBS) on the schedule with greatest frequency in the current study served as the negative control. All RNase treatments in the xenograft model are administered by intraperitoneal injection. Treatment with all agents is ongoing throughout the entire experiment (e.g., a 6 week long experiment with 1×wk dosing results in 6 total doses). Tumors were measured twice weekly using calipers. Tumor volume (mm^3) was determined by using the equation 4. The percent tumor growth inhibition was calculated using equation 5.

[2] = system: A549 lung carcinoma cells; assay: xenograft model of non-small cell lung cancer (A549) in nude mice; assay type: in vivo; details: FIG. 9
Protocol: Cells from a non-small cell lung cancer cell line (A549) were grown in nine T175 flasks in F12K media and 10% fetal calf serum until the cells were confluent. 4.5×10^6 cells ([…]) were injected into the right rear flank of 4-5 week old male homozygous (nu/nu) nude mice (Harlan, Madison Wis.). Tumors were allowed to grow to an average size of ≧75 mm^3 before treatments were initiated. Animals of each tumor type, with the properly-sized tumors, were divided into treatment groups, including one set of animals treated weekly with vehicle (phosphate buffered saline, PBS). The vehicle and the test agents were all administered by intraperitoneal injection. Each animal was weighed twice a week during treatment. The tumors were measured twice weekly using calipers. Tumor volume (mm^3) was determined by using the formula for an ellipsoid sphere:
[formula] The percent tumor growth inhibition was calculated using the formula:
[formula] […] The efficacy is similar to that of an approved cancer drug, cisplatin.

human RI = target: T1, human RI (Homo sapiens, UniProt P13489); assay: Kd^c | nM
T1 sequence (P13489 whole entry, looked up): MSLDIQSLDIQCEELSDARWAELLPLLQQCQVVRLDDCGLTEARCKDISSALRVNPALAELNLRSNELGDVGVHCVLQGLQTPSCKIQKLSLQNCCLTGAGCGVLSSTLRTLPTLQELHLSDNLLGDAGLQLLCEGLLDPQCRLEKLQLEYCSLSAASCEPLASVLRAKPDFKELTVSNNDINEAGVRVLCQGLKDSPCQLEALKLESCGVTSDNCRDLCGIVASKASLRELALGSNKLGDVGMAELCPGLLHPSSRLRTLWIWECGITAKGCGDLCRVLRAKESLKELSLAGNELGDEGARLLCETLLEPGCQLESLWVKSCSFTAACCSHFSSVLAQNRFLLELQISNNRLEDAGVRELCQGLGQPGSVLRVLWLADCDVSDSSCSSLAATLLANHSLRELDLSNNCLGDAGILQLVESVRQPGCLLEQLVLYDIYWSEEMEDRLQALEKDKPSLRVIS
Protocol: Table printed on a drawing sheet, FIGURE 2
Head of the field: Kd^c | nM
Footnotes: ^aValues of Tm (± 2 °C) were determined in PBS by UV spectroscopy. The Tm values for G88R RNase and ONC in PBS are from Leland et al. (1998, Proc. Natl. Acad. Sci. 98:10407-10412). / ^bValues of kcat/KM (± SE) are for the catalysis of 6-FAM~dArU(dA)2~6-TAMRA cleavage at room temperature in 0.10 M MES-NaOH buffer (pH 6.0) containing NaCl (0.10 M) except for the kcat/KM (± SE) of ONC . The kcat/KM value for ONC is for the catalysis of 6-FAM~dArUdGdA~6-TAMRA cleavage at room temperature in 0.020 M MES-NaOH buffer (pH 6.0) containing NaCl (0.010 M). / ^cValues of Kd (± SE) are for the complex with human RI at room temperature. The Kd value for RNase A is from Lee et al. (1989, Biochem. 28:225-230). The Kd value for G88R RNase A is from Lavis et al. (2007, Anal. Biochem. 79:6775-6782). The Kd value for ONC is an estimate from Wu et al. (1993, J. Biol. Chem. 268:10686-10693). / ^dValues of IC50 (± SE) are for incorporation of [methyl-^3H]thymidine into the DNA of K-562 cells. […]
First copying reader's note: The table body is printed very coarsely, so many digits are uncertain; the mark ^h in the (kcat/KM)cyto column has no footnote on the sheet, and the IC50 footnote is lettered d.
Where the first naming reader finds the target: footnote: Values of Kd (± SE) are for the complex with human RI at room temperature.

hRI = target: T2, hRI (Homo sapiens, UniProt P13489); details: value used as basis of the competition assay; Rutkoski et al., 2005; cited from earlier work
T2 sequence (P13489 1-461): T1 sequence (P13489 whole entry, looked up)

For `CC(=O)O[C@@]12CO[C@@H]1C[C@H](O)[C@@]1(C)C(=O)[C@H](O)C3=C(C)[C@@H](OC(=O)[C@H](O)[C@@H](NC(=O)OC(C)(C)C)c4ccccc4)C[C@@](O)([C@@H](OC(=O)c4ccccc4)[C@H]21)C3(C)C` [docetaxel, reference compound], the tumor volume ([1]; 8 mg/kg weekly, compared to a control, FIG. 5) was “decrease tumor volumes to similar levels”.

In the case of `N.N.[Cl][Pt][Cl]` [cisplatin, reference compound], the “efficacy in reducing tumor volume” value ([2]; 6 mg/kg weekly, compared with 60 kDa mPEG2 G89C RNase 1) is reported as “similar”.

B1: 20 kDa mPEG2-G88C RNase A: G88C RNase A modified with 20 kDa-mPEG2 maleimide (branched) (conjugate, UniProt P61823 27-150, looked up, variant G88C)
Ribonuclease pancreatic: KETAAAKFERQHMDSSTSAASSSNYCNQMMKSRNLTKDRCKPVNTFVHESLADVQAVCSQKNVACKNGQTNCYQSYSTMSITDCRETCSSKYPNCAYKTTQANKHIIVACEGNPYVPVHFDASV
modifications: 20 kDa branched mPEG2 maleimide
In the case of B1, the tumor volume ([1]; 75 mg/kg, 1 time per week, intraperitoneal, FIG. 5) is reported as “reduce tumor volumes” and the Kd (human RI) is reported as 37 ± 2.4 nM.

B2: 2 kDa mPEG-G88C RNase A: G88C RNase A modified with 2 kDa-mPEG maleimide (conjugate, UniProt P61823 27-150, looked up, variant G88C)
Ribonuclease pancreatic: B1 Ribonuclease pancreatic
modifications: 2 kDa mPEG maleimide
notes: G88C RNase A modified with 2 kDa-mPEG maleimide
In the case of B2, the “toxicity of the treatment as reflected by average body weight” value ([1]; 15 mg/kg twice weekly, intraperitoneal, FIG. 4B) is reported as “lack of toxicity”, the tumor volume ([1]; 15 mg/kg, 2 times per week, intraperitoneal, FIG. 4) is reported as “reduction in tumor volume over time” and the tumor volume ([1]; 15 mg/kg, 2 times per week, intraperitoneal, FIG. 4, listed as 2 kDa mPEG G88C RNase A) is reported as “reduce tumor volumes”.

B3: fluorophore-labeled G88R variant of RNase A: fluorophore-labeled G88R variant of RNase A used as probe in the ribonuclease-inhibitor binding assay (conjugate, UniProt P61823 27-150, looked up, variant G88R)
Ribonuclease pancreatic: B1 Ribonuclease pancreatic with C88R
modifications: fluorophore label
For B3, the Kd (hRI) is given as 1.4 nM.

B4: 60 kDa mPEG2-G89C RNase 1: G89C RNase 1 modified with 60 kDa-mPEG2 maleimide (branched) (conjugate, UniProt P07998 29-156, looked up, variant G89C)
Ribonuclease pancreatic: KESRAKKFQRQHMDSDSSPSSSSTYCNQMMRRRNMTQGRCKPVNTFVHEPLVDVQNVCFQEKVTCKNGQGNCYKSNSSMHITDCRLTNCSRYPNCAYRTSPKERHIIVACEGSPYVPVHFDASVEDST
modifications: 60 kDa branched mPEG2 maleimide
In the case of B4, the tumor volume ([2]; 75 mg/kg weekly, intraperitoneal, versus control) is reported as “decreases tumor volume”.

— patent US8697062B2, “Compositions and methods for ribonuclease-based therapeutics” (Quintessence Biosciences, Inc., priority 2007, dated 2014)
